One assay deals with T1, human GLP-1 receptor (human, UniProt P43220 24-463).
T1 construct: whole, on cells; Used as crude membranes of stably transfected HEK293 cells; also called hGLP1R; hGLP-1R
As to the kind of experiment: SPA, [125I]-GLP-1 displacement, hGLP-1R membranes.

The next assay deals with T2, human GIP receptor (human, UniProt P48546 22-466).
T2 construct: whole, on cells; Used as crude membranes of stably transfected CHO cells; also called hGIPR
T2 sequence (looked up): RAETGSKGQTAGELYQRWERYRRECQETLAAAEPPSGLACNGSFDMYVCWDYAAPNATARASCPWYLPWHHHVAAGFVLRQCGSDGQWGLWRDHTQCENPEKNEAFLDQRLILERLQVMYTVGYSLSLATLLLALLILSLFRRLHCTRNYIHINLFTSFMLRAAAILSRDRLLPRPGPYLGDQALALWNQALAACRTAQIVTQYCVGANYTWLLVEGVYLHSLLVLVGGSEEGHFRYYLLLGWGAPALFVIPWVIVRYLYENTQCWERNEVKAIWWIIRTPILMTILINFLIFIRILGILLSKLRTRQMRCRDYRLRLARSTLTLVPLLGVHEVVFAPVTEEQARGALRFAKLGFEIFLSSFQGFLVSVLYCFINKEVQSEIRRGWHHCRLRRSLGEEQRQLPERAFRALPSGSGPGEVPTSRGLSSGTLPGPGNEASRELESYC
As to the kind of experiment: SPA, [125I]-GIP displacement, hGIPR membranes.

Numbered stars: 1 amine (or outer) side, 2 acyl side, 3 side chain; on linkers, the order of the positions; unused ones are H or OH. Square brackets hold non-standard residues; d marks the D form. Side chains are listed from the residue outwards. Ends that are not written are not given here. * marks the point of attachment. C20 diacid = O=C(O)CCCCCCCCCCCCCCCCCCC(=O)*; γGlu = O=C(O)[C@H](CCC(=O)[*:2])N[*:1]; αMeL = CC(C)C[C@](C)(N)C(=O)O; AEEA = NCCOCCOCC(=O)O; Aib = CC(C)(N)C(=O)O

B1: Example 52 (peptide)
peptide: YXEGTFTSDYSIXLDSKAQXAFIEYLIEGGPSSGAPPPS
modifications: Aib2; αMeL13; K17((2-[2-(2-Amino-ethoxy)-ethoxy]-acetyl)2-(γ-Glu)-CO-(CH2)18-CO2H); Aib20; C-terminal NH2
B1: the Ki came to 5.81 nM with human GLP-1 receptor and 0.0342 nM with human GIP receptor.

B2: Example 82 (peptide)
peptide: YXEGTFTSDYSXLLDKKAQXAFIEYLIEGGPSSGAPPPS
modifications: Aib2; D-Ile12; K17((2-[2-(2-Amino-ethoxy)-ethoxy]-acetyl)2-(γ-Glu)-CO-(CH2)18-CO2H); Aib20; C-terminal NH2
Regarding B2, the Ki in the assay with human GLP-1 receptor was found to be 6.82 nM; with human GIP receptor, 14.9 nM.

B3: Example 84 (peptide)
peptide: YXEGTFTSDYSILLDKKAQXAFIXYLIEGGPSSGAPPPS
modifications: Aib2; K17((2-[2-(2-Amino-ethoxy)-ethoxy]-acetyl)2-(γ-Glu)-CO-(CH2)18-CO2H); Aib20; D-Glu24; C-terminal NH2
Turning to B3, the inhibition constant Ki with human GLP-1 receptor was 10.2 nM; with human GIP receptor, 0.143 nM.

B4: Example 130 (peptide)
peptide: YXEGTXTSDESILLDKKAQXAFIEYLIEGGPSSGAPPPS
modifications: Aib2; αMeF6; K17((2-[2-(2-Amino-ethoxy)-ethoxy]-acetyl)2-(γ-Glu)-CO-(CH2)18-CO2H); Aib20; C-terminal NH2
Consider B4, for which the figures for the Ki with human GLP-1 receptor and in the assay with human GIP receptor were 3.66 nM and 0.177 nM, respectively.

B5: Example 55 (peptide)
peptide: H[Aib]EGTFTSDYSI[αMeL]LDEK([AEEA-AEEA-γGlu-C20 diacid])AQHAFIEYLIEGGPSSGAPPPS-NH2
modifications: N-terminus assumed
SMILES: CC[C@H](C)[C@H](NC(=O)[C@H](CC(C)C)NC(=O)[C@H](Cc1ccc(O)cc1)NC(=O)[C@H](CCC(=O)O)NC(=O)[C@@H](NC(=O)[C@H](Cc1ccccc1)NC(=O)[C@H](C)NC(=O)[C@H](Cc1c[nH]cn1)NC(=O)[C@H](CCC(N)=O)NC(=O)[C@H](C)NC(=O)[C@H](CCCCNC(=O)COCCOCCNC(=O)COCCOCCNC(=O)CC[C@H](NC(=O)CCCCCCCCCCCCCCCCCCC(=O)O)C(=O)O)NC(=O)[C@H](CCC(=O)O)NC(=O)[C@H](CC(=O)O)NC(=O)[C@H](CC(C)C)NC(=O)[C@](C)(CC(C)C)NC(=O)[C@@H](NC(=O)[C@H](CO)NC(=O)[C@H](Cc1ccc(O)cc1)NC(=O)[C@H](CC(=O)O)NC(=O)[C@H](CO)NC(=O)[C@@H](NC(=O)[C@H](Cc1ccccc1)NC(=O)[C@@H](NC(=O)CNC(=O)[C@H](CCC(=O)O)NC(=O)C(C)(C)NC(=O)[C@@H](N)Cc1c[nH]cn1)[C@@H](C)O)[C@@H](C)O)[C@@H](C)CC)[C@@H](C)CC)C(=O)N[C@@H](CCC(=O)O)C(=O)NCC(=O)NCC(=O)N1CCC[C@H]1C(=O)N[C@@H](CO)C(=O)N[C@@H](CO)C(=O)NCC(=O)N[C@@H](C)C(=O)N1CCC[C@H]1C(=O)N1CCC[C@H]1C(=O)N1CCC[C@H]1C(=O)N[C@@H](CO)C(N)=O
With B5, the Ki in the assay with human GLP-1 receptor came out at 7.29 nM; with human GIP receptor it was 6.24 nM.

B6: Example 56 (peptide)
peptide: Y[Aib]EGTFTSDYSI[αMeL]LDEK([AEEA-AEEA-γGlu-C20 diacid])AQHAFIEYLIEGGPSSGAPPPS-NH2
modifications: N-terminus assumed
SMILES: CC[C@H](C)[C@H](NC(=O)[C@H](CC(C)C)NC(=O)[C@H](Cc1ccc(O)cc1)NC(=O)[C@H](CCC(=O)O)NC(=O)[C@@H](NC(=O)[C@H](Cc1ccccc1)NC(=O)[C@H](C)NC(=O)[C@H](Cc1c[nH]cn1)NC(=O)[C@H](CCC(N)=O)NC(=O)[C@H](C)NC(=O)[C@H](CCCCNC(=O)COCCOCCNC(=O)COCCOCCNC(=O)CC[C@H](NC(=O)CCCCCCCCCCCCCCCCCCC(=O)O)C(=O)O)NC(=O)[C@H](CCC(=O)O)NC(=O)[C@H](CC(=O)O)NC(=O)[C@H](CC(C)C)NC(=O)[C@](C)(CC(C)C)NC(=O)[C@@H](NC(=O)[C@H](CO)NC(=O)[C@H](Cc1ccc(O)cc1)NC(=O)[C@H](CC(=O)O)NC(=O)[C@H](CO)NC(=O)[C@@H](NC(=O)[C@H](Cc1ccccc1)NC(=O)[C@@H](NC(=O)CNC(=O)[C@H](CCC(=O)O)NC(=O)C(C)(C)NC(=O)[C@@H](N)Cc1ccc(O)cc1)[C@@H](C)O)[C@@H](C)O)[C@@H](C)CC)[C@@H](C)CC)C(=O)N[C@@H](CCC(=O)O)C(=O)NCC(=O)NCC(=O)N1CCC[C@H]1C(=O)N[C@@H](CO)C(=O)N[C@@H](CO)C(=O)NCC(=O)N[C@@H](C)C(=O)N1CCC[C@H]1C(=O)N1CCC[C@H]1C(=O)N1CCC[C@H]1C(=O)N[C@@H](CO)C(N)=O
With B6, the Ki with human GLP-1 receptor is 10.3 nM; with human GIP receptor it was 0.148 nM.

B7: Example 192 (peptide)
peptide: YXEGTXTSDASIXLDEKAQXEFIXYLIEGGPSSGAPPPS
modifications: Aib2; αMeF(2F)6; αMeL13; K17((2-[2-(2-Amino-ethoxy)-ethoxy]-acetyl)2-(γ-Glu)-CO-(CH2)18-CO2H); Aib20; D-Glu24; C-terminal NH2
Take B7: the Ki was 2.89 nM with human GLP-1 receptor and 0.118 nM with human GIP receptor.

B8: Example 208 (peptide)
peptide: YXEGTXTSDYSIXLDEKAQXEFIXYLIEGGPSSGAPPPS
modifications: Aib2; αMeF(2F)6; αMeL13; K17((2-[2-(2-Amino-ethoxy)-ethoxy]-acetyl)2-(γ-Glu)-CO-(CH2)14-CO2H); Aib20; D-Glu24; C-terminal NH2
Consider B8, for which the Ki with human GLP-1 receptor worked out at 2.13 nM; with human GIP receptor it was 0.0537 nM.

B9: Example 210 (peptide)
peptide: YXEGTXTSDYSIXLDXKAQXEFIXYLIEGGPSSGAPPPS
modifications: Aib2; αMeF(2F)6; αMeL13; Dap16; K17((2-[2-(2-Amino-ethoxy)-ethoxy]-acetyl)2-(γ-Glu)-CO-(CH2)16-CO2H); Aib20; D-Glu24; C-terminal NH2
Take B9: the Ki in the assay with human GLP-1 receptor is 1.58 nM; with human GIP receptor it was 0.0399 nM.

B10: Example 209 (peptide)
peptide: YXEGTXTSDYSIXLDXKAQXEFIXYLIEGGPSSGAPPPS
modifications: Aib2; αMeF(2F)6; αMeL13; Dab16; K17((2-[2-(2-Amino-ethoxy)-ethoxy]-acetyl)2-(γ-Glu)-CO-(CH2)16-CO2H); Aib20; D-Glu24; C-terminal NH2
As for B10, the values for the inhibition constant Ki with human GLP-1 receptor and with human GIP receptor were 1.43 nM and 0.0664 nM, respectively.

B11: Example 160 (peptide)
peptide: YXEGTXTSDXSIXLDEKAQXTFIXYLIEGGPSSGAPPPS
modifications: Aib2; αMeF(2F)6; Aib10; αMeL13; K17((2-[2-(2-Amino-ethoxy)-ethoxy]-acetyl)2-(γ-Glu)-CO-(CH2)18-CO2H); Aib20; D-Glu24; C-terminal NH2
Regarding B11, the figures for the inhibition constant (Ki) in the assay with human GLP-1 receptor and in the assay with human GIP receptor were 14.4 nM and 5.98 nM, respectively.

B12: Example 85 (peptide)
peptide: Y[Aib]EGTFTSDASILLDKK([AEEA-AEEA-γGlu-C20 diacid])AQ[Aib]AFIEYLIEGGPSSGAPPPS-NH2
modifications: N-terminus assumed
SMILES: CC[C@H](C)[C@H](NC(=O)[C@H](CC(C)C)NC(=O)[C@H](Cc1ccc(O)cc1)NC(=O)[C@H](CCC(=O)O)NC(=O)[C@@H](NC(=O)[C@H](Cc1ccccc1)NC(=O)[C@H](C)NC(=O)C(C)(C)NC(=O)[C@H](CCC(N)=O)NC(=O)[C@H](C)NC(=O)[C@H](CCCCNC(=O)COCCOCCNC(=O)COCCOCCNC(=O)CC[C@H](NC(=O)CCCCCCCCCCCCCCCCCCC(=O)O)C(=O)O)NC(=O)[C@H](CCCCN)NC(=O)[C@H](CC(=O)O)NC(=O)[C@H](CC(C)C)NC(=O)[C@H](CC(C)C)NC(=O)[C@@H](NC(=O)[C@H](CO)NC(=O)[C@H](C)NC(=O)[C@H](CC(=O)O)NC(=O)[C@H](CO)NC(=O)[C@@H](NC(=O)[C@H](Cc1ccccc1)NC(=O)[C@@H](NC(=O)CNC(=O)[C@H](CCC(=O)O)NC(=O)C(C)(C)NC(=O)[C@@H](N)Cc1ccc(O)cc1)[C@@H](C)O)[C@@H](C)O)[C@@H](C)CC)[C@@H](C)CC)C(=O)N[C@@H](CCC(=O)O)C(=O)NCC(=O)NCC(=O)N1CCC[C@H]1C(=O)N[C@@H](CO)C(=O)N[C@@H](CO)C(=O)NCC(=O)N[C@@H](C)C(=O)N1CCC[C@H]1C(=O)N1CCC[C@H]1C(=O)N1CCC[C@H]1C(=O)N[C@@H](CO)C(N)=O
With B12, the Ki with human GLP-1 receptor is 1.87 nM; with human GIP receptor it was 0.621 nM.

B13: Example 86 (peptide)
peptide: Y[Aib]EGTFTSDYSILLDKK([AEEA-AEEA-γGlu-C20 diacid])AQ[Aib]AFIEYLIEAGPSSGAPPPS-NH2
modifications: N-terminus assumed
SMILES: CC[C@H](C)[C@H](NC(=O)[C@H](CC(C)C)NC(=O)[C@H](Cc1ccc(O)cc1)NC(=O)[C@H](CCC(=O)O)NC(=O)[C@@H](NC(=O)[C@H](Cc1ccccc1)NC(=O)[C@H](C)NC(=O)C(C)(C)NC(=O)[C@H](CCC(N)=O)NC(=O)[C@H](C)NC(=O)[C@H](CCCCNC(=O)COCCOCCNC(=O)COCCOCCNC(=O)CC[C@H](NC(=O)CCCCCCCCCCCCCCCCCCC(=O)O)C(=O)O)NC(=O)[C@H](CCCCN)NC(=O)[C@H](CC(=O)O)NC(=O)[C@H](CC(C)C)NC(=O)[C@H](CC(C)C)NC(=O)[C@@H](NC(=O)[C@H](CO)NC(=O)[C@H](Cc1ccc(O)cc1)NC(=O)[C@H](CC(=O)O)NC(=O)[C@H](CO)NC(=O)[C@@H](NC(=O)[C@H](Cc1ccccc1)NC(=O)[C@@H](NC(=O)CNC(=O)[C@H](CCC(=O)O)NC(=O)C(C)(C)NC(=O)[C@@H](N)Cc1ccc(O)cc1)[C@@H](C)O)[C@@H](C)O)[C@@H](C)CC)[C@@H](C)CC)C(=O)N[C@@H](CCC(=O)O)C(=O)N[C@@H](C)C(=O)NCC(=O)N1CCC[C@H]1C(=O)N[C@@H](CO)C(=O)N[C@@H](CO)C(=O)NCC(=O)N[C@@H](C)C(=O)N1CCC[C@H]1C(=O)N1CCC[C@H]1C(=O)N1CCC[C@H]1C(=O)N[C@@H](CO)C(N)=O
As for B13, the Ki with human GLP-1 receptor is 3.74 nM; with human GIP receptor it was 0.0401 nM.

In general, Ki refers to the dissociation constant of the complex between target and ligand, obtained from inhibition or displacement.

Source of the values: US20200024322A1 (Eli Lilly, published 2020).
